Target: T1, OB-R (Homo sapiens, UniProt P48357)
T1 construct: After confirming via Western that the primary EEC and ESC and endometrial cell lines utilized herein had OB-R; endogenous in cells; host or cells: primary human EEC and ESC; Ishikawa (ECACC 9832301) and HES cell lines
T1 sequence (P48357 22-1165): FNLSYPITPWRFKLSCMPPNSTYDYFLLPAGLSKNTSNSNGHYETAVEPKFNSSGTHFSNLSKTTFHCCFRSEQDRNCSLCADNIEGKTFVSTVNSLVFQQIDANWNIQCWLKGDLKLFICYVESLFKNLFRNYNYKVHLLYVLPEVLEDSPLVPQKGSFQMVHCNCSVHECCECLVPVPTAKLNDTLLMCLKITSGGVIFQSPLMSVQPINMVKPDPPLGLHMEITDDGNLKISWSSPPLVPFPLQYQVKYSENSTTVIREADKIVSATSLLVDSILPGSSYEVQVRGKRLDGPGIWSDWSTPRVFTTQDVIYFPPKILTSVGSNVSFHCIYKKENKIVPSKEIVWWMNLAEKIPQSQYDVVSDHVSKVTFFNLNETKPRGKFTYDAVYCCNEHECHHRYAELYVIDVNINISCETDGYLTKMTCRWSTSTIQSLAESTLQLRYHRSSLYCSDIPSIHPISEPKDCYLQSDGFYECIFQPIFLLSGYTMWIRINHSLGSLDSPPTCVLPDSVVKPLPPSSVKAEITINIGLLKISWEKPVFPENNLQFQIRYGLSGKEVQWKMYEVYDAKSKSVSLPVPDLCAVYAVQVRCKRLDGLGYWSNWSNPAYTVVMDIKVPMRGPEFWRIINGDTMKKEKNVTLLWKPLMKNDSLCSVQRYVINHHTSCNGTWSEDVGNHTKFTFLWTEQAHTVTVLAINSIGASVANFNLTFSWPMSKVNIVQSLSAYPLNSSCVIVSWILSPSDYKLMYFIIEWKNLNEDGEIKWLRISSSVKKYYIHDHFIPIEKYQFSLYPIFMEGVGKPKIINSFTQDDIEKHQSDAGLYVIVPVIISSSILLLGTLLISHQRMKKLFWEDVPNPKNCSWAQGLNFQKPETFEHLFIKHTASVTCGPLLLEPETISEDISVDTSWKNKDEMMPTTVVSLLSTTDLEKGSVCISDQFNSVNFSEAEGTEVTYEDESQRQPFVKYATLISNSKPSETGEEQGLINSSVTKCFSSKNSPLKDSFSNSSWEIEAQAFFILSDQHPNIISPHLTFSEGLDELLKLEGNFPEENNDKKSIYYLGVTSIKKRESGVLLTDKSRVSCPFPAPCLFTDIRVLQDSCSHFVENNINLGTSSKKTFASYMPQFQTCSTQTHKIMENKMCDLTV
Experiment: LIF levels in conditioned medium of human endometrial cells (ELISA)
Type: cell-based
Conditions: for effect on leptin-induced LIF levels in conditioned medium: leptin 3 nM plus inhibitor or control
Protocol: Primary human endometrial cells (ESC and EEC) were cultured for 5-9 days in DMEM-F12 medium containing 5% fetal bovine serum (FBS), 5 μg/ml insulin, 1% amphopthericin B, 100 μg/ml streptomycin and 100 U/ml penicillin until they were 80% confluent. Two types of endometrial epithelial cell lines, HES (originally derived from a benign proliferative endometrium) and Ishikawa (human endometrial epithelial adenocarcinoma, ECACC 9832301, Wiltshire, England) were cultured under the same conditions described above. The cells were washed twice with 100 mM phosphate saline buffer (PBS), pH 7.2 and cultured for additional 2 days in the same medium but without FBS (basal medium). Cells were washed as described before and cultured in basal medium containing leptin (0, 3, 10 or 62 nM) or IL-1β (0.6, 3 and 10 nM).
The anti-OB-R antibody (10 and 20 μg/ml) and LPA-2, a specific inhibitor of OB-R (3, 120, 300 nM or 30 μM) were used to assess whether leptin-induced effects were regulated primarily by the OB-R. Non-specific species-matched IgGs to the OB-R antibody and a scrambled version of LPA-2 (LPA-2Sc) served as negative controls (Gonzalez and Leavis, Endocrine 21: 185-195 (2003)). Inhibitors of IL-1R were used (monoclonal antibody anti-IL-1R tl and IL-1Ra) to assess whether leptin activated IL-1 induced signaling pathways or just activated similar components responsible for LIF/LIF-R expression. Treatment with the cytokine, inhibitor or the two combined was implemented for 5, 15, 30 and 60 min, and 24 and 48 h. The cells were prepared for Western blot analysis. The conditioned media was collected, lyophilized and stored at −80° C. until analysis for LIF, IL-1β and IL-1Ra by ELISA could be performed. Duplicate wells were run for each treatment and the experiments repeated at least three times with different cell preparations.
Conditioned media from cells cultured under the experimental conditions described above were used to quantify the secretion of LIF, IL-1β and IL-1Ra by ELISA (Quantikine®, R&D Systems). The experiments were replicated three times and standards, controls, and samples were assayed in duplicate. Cytokine concentrations as determined by ELISA were within the range of the standard curve and were expressed in pg/ml/mg protein. The intra- and interassay coefficients of variation were between 5-8% and 8.5-10%, respectively. The lowest detectable concentration of each cytokine by ELISA was LIF (9 pg/ml), IL-1 (0.11 pg/ml) and IL-1Ra (15.6 pg/ml). These concentrations are similar to those reported by the manufacturer. LIF-ELISA is reported by the manufacturer to have a sensitivity of less than 8 pg/ml for both natural and recombinant human LIF and 100% specificity (no significant cross-reactivity or interference with a diversity of human and mouse cytokines and growth factors was observed). The performance characteristics for human IL-1β and IL-1Ra ELISAs reported are: 100% specificity, sensitivity 0.1 pg/ml and 14 pg/ml, respectively.

effect on leptin-induced LIF levels in conditioned medium (Ishikawa cells)	LIF levels after leptin (HES cells)	LIF levels in conditioned medium after leptin (Ishikawa cells, leptin 3 nM)	LIF levels after leptin (primary EEC, 24 h, dose-dependent)	Substance
not different	–	–	–	VAEVLNRSDLIQRISFSLDLNNSKLH [LPA-2Sc, scrambled version of LPA-2, negative control, reference compound]
–	No response	increased the levels of LIF	increased level of LIF	leptin: human recombinant leptin (R&D Systems), OB-R ligand used as stimulus
reduced LIF levels	–	–	–	SRNVIQISNDLENLRDLLHVLAFSKS [LPA-2, 26 amino acid peptide, residues 70-95 of helix III of the human leptin molecule; leptin peptide antagonist]

Reference: patent US8058228B2, “Leptin peptide antagonists” (Boston Biomedical Research Institute, priority 2004, dated 2011)
